In patent US20130156764A1, “NEUTRALIZATION OF FLT3 LIGAND AS A LEUKEMIA THERAPY” (The Johns Hopkins University, priority 2010, published 2013):

Tests used:
[1] = tested on: FLT3/ITD and FLT3/TKD in BaF3 cells; test: FL stimulation, FLT3 phosphorylation in BaF3/ITD and BaF3/TKD cells; assay type: cell-based
Protocol: (§1) TF1 and BaF3 cells were transfected with pCINeo constructs containing either FLT3/ITD or FLT3/TKD mutation by electroporation (Bio-Rad, Hercules, Calif.). Stable transfectants were then selected by limiting dilution in 96-well plates with 1 mg/mL G418 (Invitrogen, Carlsbad, Calif.).
(§2) BaF3 is another cell line lacking expression of endogenous FLT3. BaF3 cells transfected with mutant forms of FLT3 were starved in serum-free medium for 16 hours and washed with PBS before FL stimulation. […] Changes of other FLT3 downstream signals were not observed. An MTT survival assay was performed in BaF3/ITD and BaF3/TKD cells cultured in serum-free medium in the presence and absence of FL for 4 days. […] The effect was also confirmed by counting viable cell numbers by trypan blue exclusion (FIG. 13C, P<0.05). These findings indicate that FL stimulation prolongs the survival of cells expressing FLT3 mutants.

[2] = tested on: FLT3/ITD in primary AML blasts; test: FL stimulation, FLT3 phosphorylation in primary AML blasts with homozygous FLT3/ITD; assay type: cell-based, human; settings: 100 ng/mL FL
Protocol: (§3) To study whether further activation of mutant FLT3 receptors in response to FL also occurs in primary cells, experiments were carried on primary AML blasts expressing homozygous FLT3/ITD mutations (i.e., no detectable wild type FLT3 by PCR). The blasts were stimulated with 100 ng/mL FL. […] The survival of AML blasts was assessed by culturing them in complete medium with and without FL for 4 days.

MAPK phosphorylation = test: FL stimulation, MAPK phosphorylation in primary AML blasts with homozygous FLT3/ITD; assay type: cell-based, human; settings: 100 ng/mL FL
Protocol: as §3

[3] = tested on: TF1/ITD and TF1/TKD cells; test: Apoptosis (Annexin V/7AAD) and survival of TF1/ITD and TF1/TKD cells with FL; assay type: cell-based; settings: for survival (viable cell numbers): serum free medium; for apoptotic population: serum-free, 48 hours, presence of FL
Protocol: Evaluation of apoptosis was performed by annexin V/7-AAD staining according to the recommendations of the manufacturer (Becton Dickinson, San Jose, Calif.). After serum starvation, 5×10^5 cells were washed with cold PBS and re-suspended in 100 μL of binding buffer. Following incubation with 5 μL of annexin V-PE and 5 μL of 7-AAD in the dark for 15 minutes at room temperature, cells were analyzed by flow cytometry (FACSort, Becton Dickinson) with Cell Quest software (Becton Dickinson). Compensation was performed with samples stained with either annexin V-PE or 7-AAD alone.
2×10^4 cells in 100 μl serum-free medium were plated into triplicate wells of 96-well plates. Survival was assessed by MTT assay (Roche, Indianapolis, Ind.) and viable cell number counting by trypan blue (GIBCO, Rockville, Md.) exclusion according to the manufacturer's instructions.
The possibility of further activation of FLT3 mutant receptors by exogenous FL was also tested in cell lines in which FL autocrine, paracrine, or intracrine stimulation of FLT3 receptor might exist. […] TF1 cells expressing FLT3 mutant receptors were starved for 16 hours in serum-free medium and washed once with PBS to deplete soluble FL (either produced by the cells or contained in the serum). These cells were then stimulated with exogenous FL for 15 minutes. More than 2-fold enhancement of FLT3 phosphorylation was detected in both TF1/ITD and TF1/TKD cell lines (FIG. 12A). […] To assess the functional effect of exogenous FL, TF1/ITD and TF1/TKD cells were cultured in serum-free medium in the absence and presence of FL for 48 hours. Apoptosis was assessed by Annexin V and 7AAD staining followed by FACS analysis. […] There was no change of cell cycle status in response to FL in these cells (data not shown).

[4] = tested on: AKT and MAPK phosphorylation; test: FL stimulation, downstream signaling immunoblot in BaF3/ITD and BaF3/TKD cells; assay type: cell-based
Protocol: as §1, §2

[5] = tested on: STAT5 and AKT phosphorylation; test: FL stimulation, downstream signaling in MV411 cells; assay type: cell-based, human
[6] = tested on: FL−/− primary hematopoietic progenitor cells expressing FLT3/ITD or FLT3/TKD; test: Colony-replating assay of FL−/− bone marrow progenitors transduced with FLT3 mutants, with FL; assay type: cell-based, mice
Description: Bone marrow was harvested from FL^−/− mice, lineage depleted (Lineage Cell Depletion kit; Militenyibi Biotec, Auburn Calif.), and transduced with EF1-ITD-UBC-GFP, EF1-TKD-UBC-GFP, or EF1-UBC-GFP lentivirus by 3 rounds of spin-infection on days 1, 2 and 3. The EF1-ITD-UBC-GFP vector was constructed by inserting full-length FLT3/ITD in EF1-UBC-GFP lentiviral vector. The EF1-TKD-UBC-GFP was constructed by inserting wtFLT3 into the EF1-UBC-GFP followed by mutagenesis of wtFLT3 to substitute nucleotide G of D835 with T resulting in an Aspartic acid to Tyrosine change (QuickChange Site-Directed Mutagenesis Kit; Stratagene, La Jolla, Calif.). GFP positive cells were then sorted by FACS. 10^3 cells were plated into triplicate 35 mm Petri dishes (Nunc) in 1 ml of Methocult M3434 (StemCell Technologies Inc., Vancouver) containing 50 ng/mL rm SCF, 10 ng/mL rm IL-3, 10 ng/mL rh IL-6, and 3 units/mL rh Erythropoietin. Cultures were incubated at 37° C. in a humidified atmosphere of 5% CO2, and colonies consisting of >35 cells were scored after 9-11 days. For the colony-replating assay all cells from the previous culture were collected and re-plated at 1×10^4 cells/plate in fresh methylcellulose medium. All cells were replated three times.
To evaluate the effect of FL stimulation on primary hematopoietic progenitor cells expressing FLT3 mutants, lineage negative progenitors were harvested from FL^−/− mice and transduced with FLT3/ITD-GFP, FLT3/TKD-GFP, or GFP control lentivirus. GFP-positive cells were selected by FACS, cultured in methylcellulose with and without FL, and the colony numbers were counted after 9 days.
After colonies were counted, all of the cells in each culture dish were harvested from the methylcellulose, washed and re-plated in fresh methylcellulose medium to examine their potential to form colonies upon secondary plating; this process was repeated for two more passages to determine the frequency of tertiary and quaternary colonies. […]

B1: FL: Recombinant human FL (fms-related tyrosine kinase ligand) purchased from PeproTech; SEQ ID NO: 1 (protein, listed as Homo sapiens)
chain: MTVLAPAWSPTTYLLLLLLLSSGLSGTQDCSFQHSPISSDFAVKIRELSDYLLQDYPVTVASNLQDEELCGGLWRLVLAQRWMERLKTVAGSKMQGLLERVNTEIHFVTKCAFQPPPSCLRFVQTNISRLLQETSEQLVALKPWITRQNFSRCLELQCQPDSSTLPPPWSPRPLEATAPTAPQPPLLLLLLLPVGLLLLAAAWCLHWQRTRRRTPRPGEQVPPVPSPQDLLLVEH
For B1, the FLT3 phosphorylation [1] was “increased FLT3 phosphorylation”, the FLT3 phosphorylation [2] was “enhanced FLT3 phosphorylation” and the “samples with increased MAPK phosphorylation” value (MAPK phosphorylation) was “two out of four samples”. The “cell cycle status in response to FL” value ([3]; TF1/ITD and TF1/TKD) was “no change”, the “survival (viable cell numbers)” value ([3]; TF1/ITD) was “increased the survival” and the apoptotic population ([3]; TF1/ITD) was 49.54%. The “survival (viable cell numbers)” value ([3]; TF1/TKD) was “no significant difference”, the apoptotic population ([3]; TF1/TKD) was 31.63% and the “increase of phosphorylation of AKT” value ([4]; BaF3/ITD) was 1.3 fold. The MAPK phosphorylation ([4]; BaF3/ITD and BaF3/TKD) was “increase of MAPK phosphorylation”, the “increase of phosphorylation of AKT” value ([4]; BaF3/TKD) was 2.2 fold and the “phosphorylation of FLT3 downstream signaling, including STAT5 and AKT” value [5] was “Slightly enhanced phosphorylation”. The “number of first-generation colonies” value ([6]; BM cells transduced with FLT3 mutants, 9 days) was “slightly increased”, the “re-plating activity upon serial passages” value ([6]; BM cells transduced with FLT3 mutants, cultured in presence of FL) was “retained their re-plating activity” and the colony size ([6]; FL−/− BM cells expressing FLT3 mutants stimulated with FL) was “significant increase in colony size”.
